From the supplement of paper PMC10724198
± gives the standard deviation of the averaged measurements.

Test system: Saccharomyces cerevisiae
Assay: protein stability index of tFT-peptide fusion (C-terminal peptide) (PSI (0-1 scale)); higher = more stable (slower turnover)
Conditions: genetic background: wild type; temperature: 30 C
Method: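 Multiplexed protein stability (MPS) profiling in S. cerevisiae. Random 12-aa peptides (tFT-X12 library) are fused to the C-terminus of a sfGFP-mCherry tandem fluorescent timer, after mCherry and a GGGS linker. Cells are FACS-sorted into 8 mCherry/sfGFP bins and deep-sequenced. The protein stability index (PSI) is the read-weighted bin average, scaled from 0 (unstable) to 1 (stable). Only peptides with >10 reads are reported; cells were grown at 30 °C in SC-His with glucose.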
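Note: PSI is a weighted mean of sequencing reads over stability bins, variants kept only with over 10 reads, mCherry proximal and sfGFP distal, peptide attached via GGGS linker.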

Row | Sequence | protein stability index
1 | GLSSAVSPSFGR | 0.598 ± 0.017
2 | GLSSFIGRRGRR | 0.713 ± 0.013
3 | GLSSRQHPAPTT | 0.693 ± 0.05
4 | GLSWSSGGLMVF | 0.615 ± 0.037
5 | GLSYPPLQFYYH | 0.689 ± 0.012
6 | GLVGCDPPPPAF | 0.72 ± 0.04
7 | GLVGSGFVCIGM | 0.697 ± 0.15
8 | GLVRGGWGTVGG | 0.805 ± 0.24
9 | GLVVGGLRPKRV | 0.68 ± 0.004
10 | GLWEVVEITRRE | 0.684 ± 0.049
11 | GMDGWGWGGSVV | 0.706 ± 0.026
12 | GMGWGTVGDING | 0.709 ± 0.024
13 | GMIRDKEVVGGG | 0.651 ± 0.11
14 | GMQPRGVRRATS | 0.728 ± 0.023
15 | GMRGGKGKPAET | 0.728 ± 0.0096
16 | GMSSWNSISFPI | 0.751 ± 0.073
17 | GNNPDHAYTSNI | 0.682 ± 0.07
18 | GNRARRSGITRF | 0.809 ± 0.15
19 | GNTNIYIVMRES | 0.5935 ± 0.0031
20 | GNTPERVQRRWE | 0.632 ± 0.086
21 | GPCFKSQPKSPI | 0.6807 ± 0.0024
22 | GPCRICNERSLI | 0.613 ± 0.0062
23 | GPCSLVSLFAGD | 0.697 ± 0.017
24 | GPEGSDMIDPWK | 0.666 ± 0.13
25 | GPEVRPTLTHNE | 0.623 ± 0.018

Row | Sequence | protein stability index
26 | GPGPRAASADCP | 0.728 ± 0.08
27 | GPLPPLHPSPTI | 0.725 ± 0.016
28 | GPPDLSSSRVLL | 0.718 ± 0.11
29 | GPPPPPPLPQLW | 0.77 ± 0.037
30 | GPPRTRRRSARG | 0.668 ± 0.0068
31 | GPPSVSPPFSPS | 0.7829 ± 0.0016
32 | GPRAGFRRPELE | 0.733 ± 0.043
33 | GPRVILALLSRR | 0.6842 ± 0.0067
34 | GPSHPPHLPPPV | 0.6855 ± 0.001
35 | GPSIRWWGGGRR | 0.731 ± 0.049
36 | GPSPFHPPPPER | 0.554 ± 0.0094
37 | GPSVGWFPSGWS | 0.74212 ± 0.00021
38 | GPVTSFAPVAVS | 0.617 ± 0.038
39 | GPVVGGWSVVSK | 0.655 ± 0.058
40 | GPYDLVSAPCLG | 0.753 ± 0.057
41 | GQAPRARKTSTD | 0.678 ± 0.014
42 | GQAWVEITARDS | 0.748 ± 0.075
43 | GQGRGERRRVRP | 0.653 ± 0.075
44 | GQGSSRKSTSVK | 0.7114 ± 0.0041
45 | GQHSCTRVDTQQ | 0.734 ± 0.011
46 | GQLMRPSFSVSC | 0.658 ± 0.009
47 | GQSRQKNEKKIK | 0.687 ± 0.0091
48 | GQSSVGCYNYRR | 0.676 ± 0.036
49 | GRAGLDLACWWK | 0.709 ± 0.03
50 | GRARWVGGEGVW | 0.706 ± 0.025

Row | Sequence | protein stability index
51 | GRCGRFVGAAWG | 0.741 ± 0.17
52 | GRCLRITMACYI | 0.646 ± 0.035
53 | GREGAADGWACG | 0.652 ± 0.055
54 | GREREKGGKRIE | 0.629 ± 0.047
55 | GRFRQTVTGEGW | 0.669 ± 0.087
56 | GRGAGQAGKKKI | 0.631 ± 0.0073
57 | GRGCLGSILVFL | 0.633 ± 0.047
58 | GRGEKKREVDGG | 0.69 ± 0.065
59 | GRGGGGGAVGEW | 0.683 ± 0.037
60 | GRGGWPPWFKHK | 0.712 ± 0.033
61 | GRGLGGWARGWW | 0.69008 ± 0.00035
62 | GRGPRTTKAGRG | 0.7 ± 0.03
63 | GRGRVAAGFVAR | 0.737 ± 0.039
64 | GRGTLLGLGLYA | 0.692 ± 0.078
65 | GRGVGACLVVVV | 0.523 ± 0.022
66 | GRGVGCVRRVGG | 0.676 ± 0.059
67 | GRGWGGALGWCG | 0.668 ± 0.013
68 | GRIFAGCGGGGV | 0.705 ± 0.06
69 | GRKKRGRKGEEK | 0.631 ± 0.035
70 | GRKPGGGRRAPE | 0.666 ± 0.028
71 | GRLFCAALPLPL | 0.666 ± 0.089
72 | GRLGSSRIVGKS | 0.692 ± 0.017
73 | GRLQRKQRKYKA | 0.719 ± 0.0083
74 | GRPGISESGIIG | 0.7103 ± 0.0071
75 | GRPTRRHRGRLV | 0.709 ± 0.028

Row | Sequence | protein stability index
76 | GRQEISVGGRRM | 0.7007 ± 0.00071
77 | GRRDGRWGQIVR | 0.679 ± 0.0097
78 | GRRRVGAVVEGV | 0.641 ± 0.01
79 | GRRVQRGQARGA | 0.66 ± 0.024
80 | GRRWVGAVVEGV | 0.684 ± 0.043
81 | GRSASDTRGLGL | 0.672 ± 0.13
82 | GRSDAPVPFDPP | 0.561 ± 0.0098
83 | GRSGWAWFTCRC | 0.67 ± 0.059
84 | GRTGETGRIGRG | 0.6512 ± 0.0023
85 | GRTWCFVGARPS | 0.698 ± 0.17
86 | GRVRETRCISYG | 0.652 ± 0.11
87 | GRVRIFDCVVRL | 0.753 ± 0.011
88 | GRVRLGMKETLS | 0.713 ± 0.016
89 | GRVSAVEFWFCF | 0.615 ± 0.04
90 | GRWGGWGGRGCG | 0.696 ± 0.023
91 | GRYRNDVAVLNF | 0.683 ± 0.087
92 | GSAHSFTLLVLP | 0.742 ± 0.043
93 | GSDMRADGRIER | 0.673 ± 0.039
94 | GSEPCPRPCGPG | 0.692 ± 0.048
95 | GSFLGTSFKSEY | 0.666 ± 0.029
96 | GSFMECIREGIF | 0.718 ± 0.058
97 | GSGAICAFGFWC | 0.6599 ± 0.0041
98 | GSGDFWRLCISL | 0.785 ± 0.1
